From the nanobody polyreactivity screen of Harvey et al. (2022)

assay: yeast display, Sf9 membrane polyspecificity reagent, FACS + sequencing; frameworks hold sequencing errors
Procedure, shortened: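 Galactose induction of a Saccharomyces cerevisiae BJ5465 synthetic nanobody display library ran 36–48 hours. The cells were then stained for 1 hour at 4 °C with 10% biotinylated, detergent-solubilized Sf9 membrane reagent, pulled down on streptavidin microbeads and FACS-sorted into low and high (top ~1%) gates on expression and reagent-binding fluorescence. Labels for polyreactivity follow the gate of origin.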

Sequence	polyreactivity (PSR sort gate)
QVQLVESGGGLVQAGGSLRLSCAASGRIFTSYAKGWYRQAPGKERELVAAISRSGGSTYYADSVKGRFTISRDNAKNTVYLQMHSLKPEDTALYYCAKARVVAGYDYWGQGTQVTVSS	high polyreactivity
QVQLVESGGGLVQAGGSLRLSCAASGRIFTTYALGWYRQAPGKERELVATITSGGDTSYADSVKGRFTISRDNAKNTVYLQMNSLKPEDTAVYYCNVGASLDQCSIPFEGYYYWGQGTQVTVSS	low polyreactivity
QVQLVESGGGLVQAGGSLRLSCAASGRIFTTYAMGWYRQAPGKERELVAAISRSGGSTYYADSVKGRFTISRDNAKNTVYLQMKSLKPEDTAVYYCAAVPTSNSFRSSFYYWGQGTQVTVSS	high polyreactivity
QVQLVESGGGLVQAGGSLRLSCAASGRIFTTYAMGWYRQAPGKERELVAAISRSGGSTYYADSVKGRFTISRDNAKNTVYLQMNSLKPEDTAVYYCAAVPTSNSFRSSFYYWGQGTEVTVSS	high polyreactivity
QVQLVESGGGLVQAGGSLRLSCAASGRIFTTYAMGWYSRGPGKERELVAAISQNGGSTYYADSVKGRFTISRDNAKNTVYLQMNSLKPEDTAVYYCNAGPAGYYDYDYRGQGTQVTVSS	low polyreactivity
QVQLVESGGGLVQAGGSLRLSCAASGRIFTTYTMGWYRQAPGKERELVAAISKRGGSTYYADSVKGRFTISRDNAKNTVYLQMNSLKPEDTAVYYCAAVGGRFFAPYIWSVDSYDYWGQGTQVTVSS	high polyreactivity
QVQLVESGGGLVQAGGSLRLSCAASGRIFTTYVMGWYRQAPGKEWELVAAISARGSTYYADSVKGRFTISRDNAKNTVYLQMNSLKPEDTEVYYCAAGPRLPVYYGYPRATYNDWGQGTQVTVSS	low polyreactivity
QVQLVESGGGLVQAGGSLRLSCAASGRIFTVNAMGWYRQAPGKESELVASIRYRGSSTYYADSVKGRFTISRDNAKNTVYLQMNSLKPEDTAVYYCAAVVRQYRPPGLYDYWGQGTQVTVSS	high polyreactivity
QVQLVESGGGLVQAGGSLRLSCAASGRIFTVYAMGWYRQAPGKERELVAAIDWSDGSTYYADSVKGRFTISRDNAKNTVYLQMNCLKPEVTAVYYCAAETYWVVEYDYWGQGTQVTVSS	high polyreactivity
QVQLVESGGGLVQAGGSLRLSCAASGRIFTVYAMGWYRQAPGKERELVAAISGRGGRTYYADSVKGRFTISRDNAKNTVYLQMNSLKPEDTAGYYCNADTLTLSRPDGDIHTVWMDYWGQGTQVTVSS	low polyreactivity
QVQLVESGGGLVQAGGSLRLSCAASGRIFTVYAMGWYRQAPGKERELVAAISRGGSTYADSVKGRFTISRDNAKNTVYLQMNSLKPEDTAVYYCAAVNFRKGEDYWGQGTQVTVSS	high polyreactivity
QVQLVESGGGLVQAGGSLRLSCAASGRIFTWSTMGWYRQAAGTERELVAAINRGGSTTYADSVKGRFTISRDNAKNTVYLQMNSLKPEDTAVYYCAAYRSTSRVYSNWRGYDYWGQGTQVTVSS	high polyreactivity
QVQLVESGGGLVQAGGSLRLSCAASGRIFTYNAMGWYRQAPGKERELVAAISYSGGRTDYADSVKGRFTISRDNAKNTVYLQMHSLKPEDTAVYYCAARPGPYWTVTFRSPKYYYWGQGTQVTVSS	high polyreactivity
QVQLVESGGGLVQAGGSLRLSCAASGRIFTYNAMGWYRQAPGKERELVAAITYRGSSTYYADSVKGRFTISRDNAKNTVYLQMNSLKPEDTAVYYCAAPRLIRFVTYYSWGQGTQVTVSS	high polyreactivity
QVQLVESGGGLVQAGGSLRLSCAASGRIFTYYAMGWYRQAPGKERELVAAINWGVVTTYYADSVKGRFTISRDNAKNTVYLQMNSLKPEDSAVYYCAADWFAANYYVNPVSALYYWGQGTQVTVSS	low polyreactivity
QVQLVESGGGLVQAGGSLRLSCAASGRIFTYYGMGWSRQAPGKEMELVAAISSSGDSTFYADSVKGRFTISRDNAKNTVYLQMNSLKPEDTAVYYCAADYYYVWYDYWGQGTQVTVSS	low polyreactivity
QVQLVESGGGLVQAGGSLRLSCAASGRIFTYYPMGWYRQAPGKQRELVAAISWNGDSTYYADSVKGRFTISRDNAKNTVYLQMNSLKPEDTAVYYCIADSFTGYDYWGQGTQVTVSS	low polyreactivity
QVQLVESGGGLVQAGGSLRLSCAASGRIFTYYTMGWYRQAPGKERELVAAISWSGGRTYYADSVKGRFTISRDNAKNTVYLQMNSLKPEDTAVYYCARLQDSRESPWRGYYWGQGTQVTVSS	high polyreactivity
QVQLVESGGGLVQAGGSLRLSCAASGRIFTYYVMGWYRQAPWKERELVAAISYGGGSTYYADSVKGRFTISRDNAKNTVYLQMNSLKPEDTAGYYCAAEDGYRKMDYWGQGTQVTVSS	low polyreactivity
QVQLVESGGGLVQAGGSLRLSCAASGRIFVAYAMGWYRQAPGKERELVADIDYIDGSTYYADSVKGRFTISRDNAKNTVYLQMNSLKPEDTAVYYCAVDSLYYAGYYDYWGQGTQVTVSS	high polyreactivity
QVQLVESGGGLVQAGGSLRLSCAASGRIFVDNDMGWYRQAPGKERELVAAISGNGGNTNYADSVKGRFTISRDNAKNTVYFQMNSLKPEDTAVYYCAATYPVGHVYRYDYWGQGTQVTVSS	low polyreactivity
QVQLVESGGGLVQAGGSLRLSCAASGRIFVDNDMGWYRQAPGKERELVAAISGNGGNTNYADSVKGRFTISRDNAKNTVYLQMNSLKPEDTAVYYCAATYPVGHVYRYDYWGQGTQVTVSS	low polyreactivity

Sequence	polyreactivity (PSR sort gate)
QVQLVESGGGLVQAGGSLRLSCAASGRIFVFYAMGWYRQAPGKERELVAAITSGGSTYYADSVKGRFTISRDNAKNTVYLQMNSLKPEDTAVYYCAARGRVSWSTYWYEYWGQGTQVTVSS	high polyreactivity
QVQLVESGGGLVQAGGSLRLSCAASGRIFVGNTMGWYRQAPGKERELVAAITYRGGSTYYADSVKGRFTISRDNAKNTVYLQMNSLKPEDTAVYYCATAGYWGGDYWGQGTQVNVSS	low polyreactivity
QVQLVESGGGLVQAGGSLRLSCAASGRIFVGYAMGWFRQAPGKERELVAAINRSGSSTYYADSVNGRFTISRDNAKNTVYLQMNSLKPEDTAVYYCAARYYPRVRYATYYGSYYWGQGTQVTVSS	high polyreactivity
QVQLVESGGGLVQAGGSLRLSCAASGRIFVGYAMGWSRQAPRNERELVAAISDRGGNTYYADSVKGRFTISRDNAKNTVYFQMNSLKPEDTAVYYCAKEVRWWYGYWGQGTQVTVSS	high polyreactivity
QVQLVESGGGLVQAGGSLRLSCAASGRIFVGYAMGWYRQAPGKERELVAAINRSGSSTYYADSVKGRFTISRDYAKITVYLQMNSLKPEDTAVYYCNARSGNRYGPRYDYWGQGTQVTVSS	high polyreactivity
QVQLVESGGGLVQAGGSLRLSCAASGRIFVGYAMGWYRQAPGKERELVAAISARGGSTYYADSVMGRFTISRDNAKNTVYLQMNSLKPEDTADYYCAADEASSRGYYDSDYWGQCTQVTVSS	low polyreactivity
QVQLVESGGGLVQAGGSLRLSCAASGRIFVGYAMGWYRQAPGKERELVATITGSGGRTYYADSVKGRFTISRDNAKNTVYLQMNSLKPEDTAVFYCATRPPLFYYDDHDDDDYWGQGTQVTVSS	low polyreactivity
QVQLVESGGGLVQAGGSLRLSCAASGRIFVHYAMGWYRQAPGKEREWVAAITSGSSTNYADSVKGRFTISRDNAKNTVYLQMNSLKPEDTAVYYCAVDDWLDWLCADFGYWGQGTQVTVSS	low polyreactivity
QVQLVESGGGLVQAGGSLRLSCAASGRIFVKNAMGWYRQAPGKERELVAGISRGGSTYYADSVKGRFTISRDNAKNTVYLQMNSLKPEDTAVYYCATRNYGRGQFDYWGQGTQVTVSS	high polyreactivity
QVQLVESGGGLVQAGGSLRLSCAASGRIFVKYAMGLYRQAPGKERELVAAIRSGGSTYYADSVKRRFTISRDNAKYTVYLQMNSLKPEDTAVYYCAADRNKHHYYNEPYDYWGQGTQVTVSS	low polyreactivity
QVQLVESGGGLVQAGGSLRLSCAASGRIFVNNAMGWYRQAPGKEREFVAGISFSGDGRTYYADSVKGRFTISRDNAKNTVYLQMNSLKPEDTAVYYCAAPHRSRTHELDYWGQGTQVTVSS	low polyreactivity
QVQLVESGGGLVQAGGSLRLSCAASGRIFVNYAMGWYRQAPGKERELDAAITSDGSTSYADSVKGRFTISRDNAKNTVYLQMNSLKPEDTAVYYCAKDFFEHSPVSHTYSSSKYDYWGQGTQVTVSS	low polyreactivity
QVQLVESGGGLVQAGGSLRLSCAASGRIFVPYAMGWYRQAPGKERELVATITFGGGRTYYADSVKGRFTISRDNAKNTVYLQMNSLKPEDTAVYYCAADYYLWRLPVYAQRSFVRGDYWGQGTQVTVSS	low polyreactivity
QVQLVESGGGLVQAGGSLRLSCAASGRIFVPYAMGWYRQAPGKERELVAVISRGGSTYYADSVKGRFTISRDNAKNTVYLQMNSLKPEDTAVYYCAARGVNRQGFNYWGQGTQVTVSS	high polyreactivity
QVQLVESGGGLVQAGGSLRLSCAASGRIFVQNAMGWYRQAPGKEREVVAAISSRGTSTYYADSVKGRFTISRDNAKNTVYLQMNSLKPEDTALYYCAAREWRTFDYWGQGTQVTVSS	low polyreactivity
QVQLVESGGGLVQAGGSLRLSCAASGRIFVQYVMGWYRPAPGKERELVAAITGSDSTTYYADSVKGRFTISRDNAKNTVYLQMNSLKPEDTAVYYCNKDLWLQDDYWGQGTQVTVSS	low polyreactivity
QVQLVESGGGLVQAGGSLRLSCAASGRIFVRNAMGWYRQAPGKERELVAAISWSSGGTYYADSVKGRFTISRDNAKNTVYLQMNSLKPEDTAVYYCNADPSRAGDYWGQGTQVTVSS	low polyreactivity
QVQLVESGGGLVQAGGSLRLSCAASGRIFVRYAMGWYRQAPGKERELVAAIRWSGGRTYYADSVKGRFTISRDNAKNTFYLQMNSLKPEDTAVYYCAVRYRDLFGYWGQGTQVTVSS	high polyreactivity
QVQLVESGGGLVQAGGSLRLSCAASGRIFVRYAMGWYRQAPGKERELVAAISSGGRTHYADSVKGRFTISRDNAKNTVYLQRNSLKPEDTAVYDCATRLRSTTRYYYWGQGTQVTVSS	high polyreactivity
QVQLVESGGGLVQAGGSLRLSCAASGRIFVRYAMGWYRQAPGKERELVAAISSRGGTTYYADSVKGRFTISRDNAKNTVYLQMNSLKPEDTAVYYCAALYDSTYGGVLFDYWGQGTQVTVSS	low polyreactivity
QVQLVESGGGLVQAGGSLRLSCAASGRIFVRYVMGWYRLAPGKERELVAAINWNGGSTYYADSVKGRFTISRDNAKNTVYLQMNSLKPEDTAVYYGAARGQFYNTRGGYWGQGTQVTVSS	high polyreactivity
